# B1: H4H18449P2 (antibody, human IgG4, V domains shown)
# VH: EVQLVESGGGLVQPGGSLRLSCVASGFTFNKYDMHWVRQTTGKGLEWVSGIDTDGDTYYPGSVKGRFTISRENAENSLYLQMNGLRVGDTAVYYCARWPWSGFYGAFDIWGQGTMVTVSS
# VL: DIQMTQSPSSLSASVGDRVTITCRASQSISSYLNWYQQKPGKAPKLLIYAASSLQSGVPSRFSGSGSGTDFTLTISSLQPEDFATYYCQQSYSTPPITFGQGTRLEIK
# notes: human IgG4 Fc
# B2: H4H18438P2 (antibody, V domains shown)
# VH: QVQLVESGGGVVQPGRSLRLSCAASGFSFNTYGMHWVRQAPGKGLEWVTIIWYDGSIKYYADSVKGRFTISRDNSKNTLYLQMNSLRAEDTAVYYCARGGYSGYLYFDYWGQGTLVTVSS
# VL: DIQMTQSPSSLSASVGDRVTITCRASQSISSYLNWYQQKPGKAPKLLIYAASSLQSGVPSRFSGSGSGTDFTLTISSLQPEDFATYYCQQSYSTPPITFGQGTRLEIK
# B3: H4H17321P2 (antibody, V domains shown)
# VH: QVQLVESGGGVVQPGRSLRLSCEASGFSSSDNAMYWVRQAPGKGLEWVSVIYHDGSYKYYEDSVKGRFTIARDNSKNTLYLQMNSLRAEDTAVYYCARYNWNHWYFDVWGRGTLVTVSS
# VL: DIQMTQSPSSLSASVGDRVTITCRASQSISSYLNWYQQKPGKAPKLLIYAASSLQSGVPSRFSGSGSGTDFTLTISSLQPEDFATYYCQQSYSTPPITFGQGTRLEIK
# B4: H4H16650P2 (antibody, V domains shown)
# VH: QVQLVESGGGVVQPGKSLRLSCVASGFTFSSDAMYWVRQAPGKGLEWVAVIYYDGNYQYYEDSVKGRFTISRDNSQNTLDLQMNSLRVDDTAVYFCARLNWDYWYLDLWGRGTLVTVSS
# VL: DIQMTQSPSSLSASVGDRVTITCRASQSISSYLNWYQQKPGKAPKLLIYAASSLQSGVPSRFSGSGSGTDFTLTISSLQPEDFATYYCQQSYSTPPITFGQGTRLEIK
# B5: H4H18445P2 (antibody, human IgG4, V domains shown)
# VH: QVQLQESGPGLVKPSQTLSLTCTVSGGSISSGGDYWSWIRQLPGKGLEWIGYIYYSGSAYYNPSLKSRGTISIDTSKNQFSLKLTSVTAADTAVYFCVKLRFLEWFLGGWFGPWGQGTLVTVSS
# VL: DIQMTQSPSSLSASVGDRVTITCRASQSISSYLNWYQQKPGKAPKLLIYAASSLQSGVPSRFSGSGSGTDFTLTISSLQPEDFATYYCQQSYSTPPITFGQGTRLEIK
# notes: human IgG4 Fc
# B6: H4H17319P2 (antibody, V domains shown)
# VH: QVQLVESGGSVVQPGRSLRLSCAASGFTFSTYAMYWVRQTPGKGLEWVAVLYSDGSNKYYIDSVKGRFTISRDTSTNTLYLQMSSLRADDSALYYCARLNWDYWYFDLWGRGTLVTVSS
# VL: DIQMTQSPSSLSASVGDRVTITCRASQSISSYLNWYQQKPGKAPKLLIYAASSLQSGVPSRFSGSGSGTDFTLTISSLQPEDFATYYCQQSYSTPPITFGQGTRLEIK
# notes: also called REGN4461
# B7: H4H18446P2 (antibody, human IgG4, V domains shown)
# VH: EVQLVESGGGLVQPGGSLRLSCAASGFTFSNYGMTWVRQAPGKGLEWVSAITGGGGSTYYSNSVKGRFTISRDNSKNTVYLRMNSVRAEDTAVYYCAKYKWNFVDDWGQGTTVTVSS
# VL: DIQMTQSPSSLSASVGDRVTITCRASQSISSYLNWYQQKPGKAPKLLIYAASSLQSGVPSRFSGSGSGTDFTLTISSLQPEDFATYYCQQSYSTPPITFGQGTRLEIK
# notes: human IgG4 Fc
# B8: H4H18417P2 (antibody, V domains shown)
# VH: QVQLVESGGGVVQPGRSLRLSCAASGFTFSTYGMHWVRQAPGKGLEWVSVISYDESNKYYADSVKGRFTISRDNSKNALYLQMNSLRNEDTAVYYCARDRPFGLVTGWFDPWGQGTLVTVSS
# VL: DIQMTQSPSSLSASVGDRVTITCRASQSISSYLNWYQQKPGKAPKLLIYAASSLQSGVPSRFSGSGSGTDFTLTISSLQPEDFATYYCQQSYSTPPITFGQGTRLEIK
# Target: T1, full length human LEPR (amino acids 1-1165 of P48357, Isoform B) on cells (human, UniProt P48357 22-1165)
# T1 sequence: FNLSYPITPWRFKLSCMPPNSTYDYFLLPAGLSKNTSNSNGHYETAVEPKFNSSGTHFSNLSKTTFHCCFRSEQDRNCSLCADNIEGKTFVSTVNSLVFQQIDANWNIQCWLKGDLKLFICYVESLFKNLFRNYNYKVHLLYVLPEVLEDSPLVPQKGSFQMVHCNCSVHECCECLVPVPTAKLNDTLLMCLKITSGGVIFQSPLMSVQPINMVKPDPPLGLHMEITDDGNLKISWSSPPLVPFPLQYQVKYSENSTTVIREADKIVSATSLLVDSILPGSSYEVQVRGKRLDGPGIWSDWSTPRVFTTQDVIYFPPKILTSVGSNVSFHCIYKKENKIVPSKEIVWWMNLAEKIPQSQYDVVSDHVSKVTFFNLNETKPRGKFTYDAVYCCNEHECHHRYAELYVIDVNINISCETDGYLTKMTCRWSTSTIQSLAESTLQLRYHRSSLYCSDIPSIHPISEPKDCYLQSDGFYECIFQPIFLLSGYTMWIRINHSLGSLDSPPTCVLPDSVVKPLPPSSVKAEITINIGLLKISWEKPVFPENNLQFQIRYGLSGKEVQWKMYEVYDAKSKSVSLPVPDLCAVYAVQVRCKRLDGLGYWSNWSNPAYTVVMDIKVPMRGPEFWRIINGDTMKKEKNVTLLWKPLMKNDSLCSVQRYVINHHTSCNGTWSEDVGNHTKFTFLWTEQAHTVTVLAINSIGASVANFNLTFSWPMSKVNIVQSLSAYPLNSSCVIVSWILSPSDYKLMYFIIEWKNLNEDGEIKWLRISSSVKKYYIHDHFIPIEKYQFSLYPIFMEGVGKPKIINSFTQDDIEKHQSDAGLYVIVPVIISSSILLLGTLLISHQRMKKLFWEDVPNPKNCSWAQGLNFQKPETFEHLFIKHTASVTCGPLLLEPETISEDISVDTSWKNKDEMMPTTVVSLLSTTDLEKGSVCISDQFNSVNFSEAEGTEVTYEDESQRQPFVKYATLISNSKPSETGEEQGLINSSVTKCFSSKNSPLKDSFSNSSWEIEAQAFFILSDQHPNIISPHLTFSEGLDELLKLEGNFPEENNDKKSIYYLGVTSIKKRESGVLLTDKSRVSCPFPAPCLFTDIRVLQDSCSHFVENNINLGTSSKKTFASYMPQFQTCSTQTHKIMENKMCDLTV
# Test: cell-based or functional assay
Binder,% activation; IMR-32/LEPR with 200 pM human Leptin,% activation; IMR-32/LEPR without human Leptin,EC50 (M); IMR-32/LEPR with 200 pM human Leptin,EC50 (M); IMR-32/LEPR without human Leptin (STAT3-Luc reporter)
B1,66%,13%,5.23e-11 M,2.12e-10 M
B2,76%,5%,2.02e-11 M,1.49e-09 M
B3,76%,66%,2.57e-10 M,2.07e-10 M
B4,88%,68%,5.19e-11 M,6.19e-11 M
B5,97%,5%,4.1e-10 M,1.19e-08 M
B6,76%,68%,1.91e-10 M,1.87e-10 M
B7,68%,6%,3.42e-11 M,3.73e-10 M
B8,87%,5%,5.23e-10 M,1.53e-10 M

# Target: extracellular domain of Macaca fascicularis LEPR (amino acids 22-837 of XP_005543194.1, T827A) fused with the … (Macaca fascicularis; human)
# Test: cell-based or functional assay
row,Binder,"EC50 (M); STAT3-Luc reporter, IMR-32/STAT3-Luc/MfLEPR cells"
1,B3,3.68e-10 M
2,B4,2.66e-10 M
3,B6,3.65e-10 M

# Target: T2, extracellular domain portion of LEPR protein expressed with a C-terminal human Fc tag (hLEPR.hFc) (human)
# T2 construct: also called dimeric human LEPR
# Test: blocking ELISA, hLeptin coated
# Protocol: These antibody-protein or protein-protein complexes were then incubated for 1.5 hour at room temperature (RT). […] Samples were developed with a TMB solution (BD Biosciences, #555214; substrate A and B mixed at 1:1 ratio as per manufacturer's instructions) to produce a colorimetric reaction and then neutralized with 1M sulfuric acid before measuring absorbance at 450 nm on a Victor X5 plate reader.
# Data analysis was performed using a sigmoidal dose-response model within Prism™ software (GraphPad).
row,Binder,500 nM Ab Blocking of 10 nM hLEPR.hFc Binding to hLeptin (% blockade)
1,B1,8%
2,B2,15%
3,B3,6%
4,B4,-7%
5,B5,28%
6,B6,9%
7,B7,-5%
8,B8,16%

# Target: T3, extracellular domain of human LEPR (amino acids 22-839 of P48357, Isoform B) with N-terminal myc-myc tag, … (human, UniProt P48357 22-839, GPI anchor at the C-terminus)
# T3 construct: also called HEK293/Mycx2-hLepR(Ecto)-GPI anchored cells
# T3 sequence: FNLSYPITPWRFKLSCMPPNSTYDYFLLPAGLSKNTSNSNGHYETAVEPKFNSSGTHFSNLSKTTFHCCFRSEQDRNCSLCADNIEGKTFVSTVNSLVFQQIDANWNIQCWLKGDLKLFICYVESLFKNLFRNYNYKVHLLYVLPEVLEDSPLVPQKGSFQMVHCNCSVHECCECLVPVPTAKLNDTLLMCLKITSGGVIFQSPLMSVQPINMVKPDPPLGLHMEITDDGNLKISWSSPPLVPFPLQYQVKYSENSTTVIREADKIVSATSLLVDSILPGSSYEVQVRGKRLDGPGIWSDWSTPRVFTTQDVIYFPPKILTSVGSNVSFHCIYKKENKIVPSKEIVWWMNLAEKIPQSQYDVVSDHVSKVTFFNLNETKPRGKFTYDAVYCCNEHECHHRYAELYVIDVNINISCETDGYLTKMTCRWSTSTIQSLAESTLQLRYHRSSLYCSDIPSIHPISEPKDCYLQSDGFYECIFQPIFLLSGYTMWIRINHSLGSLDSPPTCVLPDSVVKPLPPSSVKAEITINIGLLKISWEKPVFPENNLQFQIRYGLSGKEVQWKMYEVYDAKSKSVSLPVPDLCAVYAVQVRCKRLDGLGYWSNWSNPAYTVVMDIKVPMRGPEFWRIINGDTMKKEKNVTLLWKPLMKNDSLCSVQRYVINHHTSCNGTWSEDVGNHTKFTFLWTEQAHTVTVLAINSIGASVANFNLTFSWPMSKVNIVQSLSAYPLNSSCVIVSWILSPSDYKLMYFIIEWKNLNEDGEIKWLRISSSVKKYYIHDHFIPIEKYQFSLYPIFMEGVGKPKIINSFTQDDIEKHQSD
# Test: FACS, 70 nM Ab, HEK293/hLEPR-GPI, no Leptin
row,Binder,Binding Ratio (normalized to unstained)
1,B3,1130 fold
2,B4,707 fold
3,B6,1130 fold

# Target: T3, extracellular domain of human LEPR …
# Test: FACS, 10 nM Ab, HEK293/hLEPR-GPI, no added Leptin
# Protocol: For the FACS analysis, HEK293 parental cells and HEK293/hLEPR-GPI cells were dissociated and plated onto 96-well v-bottom plates at 5×10⁵ cells/well in PBS containing 2% FBS (FACS buffer). […] Cells were subsequently fixed using BD CytoFix™ (Becton Dickinson, #554655), filtered, and analyzed on a HyperCyt Flow Cytometer (Beckman Coulter). Unstained and secondary antibody alone controls were also tested for all cell lines. The results were analyzed using ForeCyt (IntelliCyt) and FlowJo version 10 software to determine the geometric means of fluorescence for viable cells. The geometric mean of fluorescence for each sample was then normalized to the geometric mean of unstained cells to obtain relative binding per condition referred to as “binding ratios”, and these binding ratios were recorded for each antibody tested.
row,Binder,Binding Ratio (normalized to unstained)
1,B1,3370 fold
2,B2,1490 fold
3,B4,2420 fold
4,B5,2020 fold
5,B8,1840 fold

# Source: patent publication US20190309079A1 (Regeneron, published 2019)
